In the supplement of paper PMC5998384:

What was measured:
[1] = system: HeLa Kyoto; assay: solubility in G1/S (NP-40 vs SDS abundance) (log2 ratio); higher = more soluble; conditions: cell cycle stage: G1/S
[2] = system: HeLa Kyoto; assay: melting temperature (median over replicates), in situ; higher = more thermally stable
[3] = system: HeLa Kyoto; assay: solubility change mitosis vs G1/S (difference of NP-40 vs SDS log2 ratios) (log2 ratio difference); higher = more soluble in mitosis
[4] = system: HeLa Kyoto; assay: thermal stability score vs G1/S (z-score of summed log2 fold changes over temperatures); higher = more thermally stable than in G1/S
[5] = cell cycle stage: early G1 (4.5 h after nocodazole release)
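Throughout, for melting temperature (median over replicates), in situ: HeLa Kyoto cells synchronized by double thymidine or nocodazole block, proteins quantified by TMT10plex mass spectrometry, three independent biological replicates.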
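Throughout, for solubility change mitosis vs G1/S (difference of NP-40 vs SDS log2 ratios): synchronized HeLa Kyoto cells (double thymidine block for G1/S, nocodazole release for mitosis), protein amounts in NP-40 versus SDS lysates quantified by mass spectrometry, three biological replicates.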
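Throughout, for solubility in G1/S (NP-40 vs SDS abundance): HeLa Kyoto cells arrested at G1/S by double thymidine block, proteins quantified by TMT10plex mass spectrometry in mild NP-40 versus SDS extracts, three biological replicates.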
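Throughout, for thermal stability score vs G1/S (z-score of summed log2 fold changes over temperatures): synchronized HeLa Kyoto cells, proteins quantified by TMT10plex mass spectrometry, three biological replicates, mitosis taken 0.5 h after nocodazole release, G1/S directly after double thymidine block.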

Chain of PELP1 (chain, as listed by the source): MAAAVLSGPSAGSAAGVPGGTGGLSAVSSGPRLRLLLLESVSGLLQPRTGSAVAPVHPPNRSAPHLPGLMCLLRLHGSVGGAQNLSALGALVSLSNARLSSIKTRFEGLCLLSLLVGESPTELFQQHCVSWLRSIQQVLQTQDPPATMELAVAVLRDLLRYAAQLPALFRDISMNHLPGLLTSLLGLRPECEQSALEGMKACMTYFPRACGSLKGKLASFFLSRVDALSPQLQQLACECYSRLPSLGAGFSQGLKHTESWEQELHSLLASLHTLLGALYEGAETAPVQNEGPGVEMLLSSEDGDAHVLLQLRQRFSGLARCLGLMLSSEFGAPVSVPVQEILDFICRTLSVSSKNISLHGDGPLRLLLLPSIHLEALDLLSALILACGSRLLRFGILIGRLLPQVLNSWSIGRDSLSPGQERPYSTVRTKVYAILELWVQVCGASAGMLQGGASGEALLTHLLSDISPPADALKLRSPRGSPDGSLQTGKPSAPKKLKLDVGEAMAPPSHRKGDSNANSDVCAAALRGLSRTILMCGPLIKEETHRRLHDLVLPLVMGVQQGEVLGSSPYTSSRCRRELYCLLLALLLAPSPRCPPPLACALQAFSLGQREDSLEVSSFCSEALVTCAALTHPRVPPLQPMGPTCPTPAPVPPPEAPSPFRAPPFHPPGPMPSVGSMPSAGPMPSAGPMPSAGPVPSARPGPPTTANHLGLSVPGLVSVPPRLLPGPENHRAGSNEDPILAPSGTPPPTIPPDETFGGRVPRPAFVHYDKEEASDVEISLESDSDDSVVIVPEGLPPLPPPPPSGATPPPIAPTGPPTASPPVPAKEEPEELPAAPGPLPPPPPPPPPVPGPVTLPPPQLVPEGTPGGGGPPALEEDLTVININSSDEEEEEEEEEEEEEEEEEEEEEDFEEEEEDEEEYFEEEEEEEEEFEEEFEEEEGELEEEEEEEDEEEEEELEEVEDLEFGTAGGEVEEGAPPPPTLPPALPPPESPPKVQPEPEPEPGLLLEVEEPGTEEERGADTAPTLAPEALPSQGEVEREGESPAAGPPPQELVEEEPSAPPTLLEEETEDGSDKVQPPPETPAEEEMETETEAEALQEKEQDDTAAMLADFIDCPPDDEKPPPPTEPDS
Chain of STK26 (chain, as listed by the source): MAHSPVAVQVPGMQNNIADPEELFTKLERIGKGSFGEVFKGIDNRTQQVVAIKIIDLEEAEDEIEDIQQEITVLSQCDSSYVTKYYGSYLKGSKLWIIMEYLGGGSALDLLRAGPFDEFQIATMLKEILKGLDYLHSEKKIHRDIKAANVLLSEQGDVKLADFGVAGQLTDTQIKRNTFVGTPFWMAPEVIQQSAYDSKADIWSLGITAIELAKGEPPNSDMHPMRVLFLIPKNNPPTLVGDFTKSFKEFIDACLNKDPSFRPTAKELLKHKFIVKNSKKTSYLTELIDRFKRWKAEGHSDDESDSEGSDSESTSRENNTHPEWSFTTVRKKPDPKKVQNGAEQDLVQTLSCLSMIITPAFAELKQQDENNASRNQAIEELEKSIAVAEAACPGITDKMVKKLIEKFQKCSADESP

Substance	solubility in G1/S (log2) [1]	melting temperature ([2]; cell cycle stage: G1/S) [°C]	melting temperature ([2]; cell cycle stage: mitosis) [°C]	solubility change mitosis (log2) [3]	thermal stability score [4, 5]	thermal stability score ([4]; cell cycle stage: mitosis)
MHRDSCPLDCKVYVGNLGNNGNKTELERAFGYYGPLRSVWVARNPPGFAFVEFEDPRDAADAVRELDGRTLCGCRVRVELSNGEKRSRNRGPPPSWGRRPRDDYRRRSPPPRRRSPRRRSFSRSRSRSLSRDRRRERSLSRERNHKPSRSFSRSRSRSRSNERK [SRSF3]	-0.0567	55.3	54.2	0.503	-0.84	-4.46
MIGCGACEPKVKMAGGQAAAALPTWKMAARRSLSARGRGILQAAAGRLLPLLLLSCCCGAGGCAAVGENEETVIIGLRLEDTNDVSFMEGGALRVSERTRVKLRVYGQNINNETWSRIAFTEHERRRHSPGERGLGGPAPPEPDSGPQRCGIRTSDIIILPHIILNRRTSGIIEIEIKPLRKMEKSKSYYLCTSLSTPALGAGGSGSTGGAVGGKGGSGVAGLPPPPWAETTWIYHDGEDTKMIVGEEKKFLLPFWLQVIFISLLLCLSGMFSGLNLGLMALDPMELRIVQNCGTEKEKNYAKRIEPVRRQGNYLLCSLLLGNVLVNTTLTILLDDIAGSGLVAVVVSTIGIVIFGEIVPQAICSRHGLAVGANTIFLTKFFMMMTFPASYPVSKLLDCVLGQEIGTVYNREKLLEMLRVTDPYNDLVKEELNIIQGALELRTKTVEDVMTPLRDCFMITGEAILDFNTMSEIMESGYTRIPVFEGERSNIVDLLFVKDLAFVDPDDCTPLKTITKFYNHPLHFVFNDTKLDAMLEEFKKGKSHLAIVQRVNNEGEGDPFYEVLGIVTLEDVIEEIIKSEILDETDLYTDNRTKKKVAHRERKQDFSAFKQTDSEMKVKISPQLLLAMHRFLATEVEAFSPSQMSEKILLRLLKHPNVIQELKYDEKNKKAPEYYLYQRNKPVDYFVLILQGKVEVEAGKEGMKFEASAFSYYGVMALTASPVPLSLSRTFVVSRTELLAAGSPGENKSPPRPCGLNHSDSLSRSDRIDAVTPTLGSSNNQLNSSLLQVYIPDYSVRALSDLQFVKISRQQYQNALMASRMDKTPQSSDSENTKIELTLTELHDGLPDETANLLNEQNCVTHSKANHSLHNEGAI [CNNM2]	-0.386	–	51.1	0.346	-1.21	-1.62
MAQESPKNSAAEIPVTSNGEVDDSREHSFNRDLKHSLPSGLGLSETQITSHGFDNTKEGVIEAGAFQGSPAPPLPSVMSPSRVAASRLAQQGSDLIVPAGGQRTQTKSGPVILADEIKNPAMEKLELVRKWSLNTYKCTRQIISEKLGRGSRTVDLELEAQIDILRDNKKKYENILKLAQTLSTQLFQMVHTQRQLGDAFADLSLKSLELHEEFGYNADTQKLLAKNGETLLGAINFFIASVNTLVNKTIEDTLMTVKQYESARIEYDAYRTDLEELNLGPRDANTLPKIEQSQHLFQAHKEKYDKMRNDVSVKLKFLEENKVKVLHNQLVLFHNAIAAYFAGNQKQLEQTLKQFHIKLKTPGVDAPSWLEEQ [ARFIP1]	0.623	51.2	50.9	-0.00419	-0.0158	0.558
MKVNRETKRLYVGGLSQDISEADLQNQFSRFGEVSDVEIITRKDDQGNPQKVFAYINISVAEADLKKCMSVLNKTKWKGGTLQIQLAKESFLHRLAQEREAAKAKKEESTTGNANLLEKTGGVDFHMKAVPGTEVPGHKNWVVSKFGRVLPVLHLKNQHKRKIIKYDPSKYCHNLKKIGEDFSNTIPISSLTWELEGGNDPMSKKRRGEFSDFHGPPKKIIKVQKDESSTGSLAMSTRPRRVIERPPLTQQQAAQKRTCDSITPSKSSPVPVSDTQKLKNLPFKTSGLETAKKRNSISDDDTDSEDELRMMIAKEENLQRTTQPSINESESDPFEVVRDDFKSGVHKLHSLIGLGIKNRVSCHDSDDDIMRNDREYDSGDTDEIIAMKKNVAKVKNSTEFSQMEKSTKKTSFKNRENCELSDHCIKLQKRKSNVESALSHGLKSLNRKSPSHSSSSEDADSASELADSEGGEEYNAMMKNCLRVNLTLADLEQLAGSDLKVPNEDTKSDGPETTTQCKFDRGSKSPKTPTGLRRGRQCIRPAEIVASLLEGEENTCGKQKPKENNLKPKFQAFKGVGCLYEKESMKKSLKDSVASNNKDQNSMKHEDPSIISMEDGSPYVNGSLGEVTPCQHAKKANGPNYIQPQKRQTTFESQDRKAVSPSSSEKRSKNPISRPLEGKKSLSLSAKTHNIGFDKDSCHSTTKTEASQEERSDSSGLTSLKKSPKVSSKDTREIKTDFSLSISNSSDVSAKDKHAEDNEKRLAALEARQKAKEVQKKLVHNALANLDGHPEDKPTHIIFGSDSECETEETSTQEQSHPGEEWVKESMGKTSGKLFDSSDDDESDSEDDSNRFKIKPQFEGRAGQKLMDLQSHFGTDDRFRMDSRFLETDSEEEQEEVNEKKTAEEEELAEEKKKALNVVQSVLQINLSNSTNRGSVAAKKFKDIIHYDPTKQDHATYERKRDDKPKESKAKRKKKREEAEKLPEVSKEMYYNIAMDLKEIFQTTKYTSEKEEGTPWNEDCGKEKPEEIQDPAALTSDAEQPSGFTFSFFDSDTKDIKEETYRVETVKPGKIVWQEDPRLQDSSSEEEDVTEETDHRNSSPGEASLLEKETTRFFFFSKNDERLQGSDLFWRGVGSNMSRNSWEARTTNLRMDCRKKHKDAKRKMKPK [NOL8]	-1.85	51.3	51.3	1.08	1.32	2.26
MKKFFQEFKADIKFKSAGPGQKLKESVGEKAHKEKPNQPAPRPPRQGPTNEAQMAAAAALARLEQKQSRAWGPTSQDTIRNQVRKELQAEATVSGSPEAPGTNVVSEPREEGSAHLAVPGVYFTCPLTGATLRKDQRDACIKEAILLHFSTDPVAASIMKIYTFNKDQDRVKLGVDTIAKYLDNIHLHPEEEKYRKIKLQNKVFQERINCLEGTHEFFEAIGFQKVLLPAQDQEDPEEFYVLSETTLAQPQSLERHKEQLLAAEPVRAKLDRQRRVFQPSPLASQFELPGDFFNLTAEEIKREQRLRSEAVERLSVLRTKAMREKEEQRGLRKYNYTLLRVRLPDGCLLQGTFYARERLGAVYGFVREALQSDWLPFELLASGGQKLSEDENLALNECGLVPSALLTFSWDMAVLEDIKAAGAEPDSILKPELLSAIEKLL [UBXN6]	0.337	–	47.8	-0.0563	0.361	0.361
STK26	0.393	49.1	49.8	-0.0994	1.96	2.98
MALLALLLVVALPRVWTDANLTARQRDPEDSQRTDEGDNRVWCHVCERENTFECQNPRRCKWTEPYCVIAAVKIFPRFFMVAKQCSAGCAAMERPKPEEKRFLLEEPMPFFYLKCCKIRYCNLEGPPINSSVFKEYAGSMGESCGGLWLAILLLLASIAAGLSLS [LY6K]	0.0392	52.6	52.9	-0.107	2.6	2.04
TOP2B	-2.12	52.2	51.6	0.675	0.414	1.45
MDFSKFLADDFDVKEWINAAFRAGSKEAASGKADGHAATLVMKLQLFIQEVNHAVEETSHQALQNMPKVLRDVEALKQEASFLKEQMILVKEDIKKFEQDTSQSMQVLVEIDQVKSRMQLAAESLQEADKWSTLSADIEETFKTQDIAVISAKLTGMQNSLMMLVDTPDYSEKCVHLEALKNRLEALASPQIVAAFTSQAVDQSKVFVKVFTEIDRMPQLLAYYYKCHKVQLLAAWQELCQSDLSLDRQLTGLYDALLGAWHTQIQWATQVFQKPHEVVMVLLIQTLGALMPSLPSCLSNGVERAGPEQELTRLLEFYDATAHFAKGLEMALLPHLHEHNLVKVTELVDAVYDPYKPYQLKYGDMEESNLLIQMSAVPLEHGEVIDCVQELSHSVNKLFGLASAAVDRCVRFTNGLGTCGLLSALKSLFAKYVSDFTSTLQSIRKKCKLDHIPPNSLFQEDWTAFQNSIRIIATCGELLRHCGDFEQQLANRILSTAGKYLSDSCSPRSLAGFQESILTDKKNSAKNPWQEYNYLQKDNPAEYASLMEILYTLKEKGSSNHNLLAAPRAALTRLNQQAHQLAFDSVFLRIKQQLLLISKMDSWNTAGIGETLTDELPAFSLTPLEYISNIGQYIMSLPLNLEPFVTQEDSALELALHAGKLPFPPEQGDELPELDNMADNWLGSIARATMQTYCDAILQIPELSPHSAKQLATDIDYLINVMDALGLQPSRTLQHIVTLLKTRPEDYRQVSKGLPRRLATTVATMRSVNY [COG7]	0.165	48.8	48.7	-0.0565	0.766	1.31
DSP	-0.687	46.7	46.6	-0.0238	-3.13	0.479
MDGDGDPESVGQPEEASPEEQPEEASAEEERPEDQQEEEAAAAAAYLDELPEPLLLRVLAALPAAELVQACRLVCLRWKELVDGAPLWLLKCQQEGLVPEGGVEEERDHWQQFYFLSKRRRNLLRNPCGEEDLEGWCDVEHGGDGWRVEELPGDSGVEFTHDESVKKYFASSFEWCRKAQVIDLQAEGYWEELLDTTQPAIVVKDWYSGRSDAGCLYELTVKLLSEHENVLAEFSSGQVAVPQDSDGGGWMEISHTFTDYGPGVRFVRFEHGGQDSVYWKGWFGARVTNSSVWVEP [FBXO2]	-0.047	51.9	50.8	-0.206	0.487	-0.484
MGRTSKDKRDVYYRLAKENGWRARSAFKLLQLDKEFQLFQGVTRAVDLCAAPGSWSQVLSQKIGGQGSGHVVAVDLQAMAPLPGVVQIQGDITQLSTAKEIIQHFKGCPADLVVCDGAPDVTGLHDVDEYMQAQLLLAALNIATHVLKPGGCFVAKIFRGRDVTLLYSQLQVFFSSVLCAKPRSSRNSSIEAFAVCQGYDPPEGFIPDLSKPLLDHSYDPDFNQLDGPTRIIVPFVTCGDLSSYDSDRSYPLDLEGGSEYKYTPPTQPPISPPYQEACTLKRKGQLAKEIRPQDCPISRVDTFPQPLAAPQCHTLLAPEMEDNEMSCSP [FTSJ1]	0.332	51.4	50.5	0.07	-0.919	-0.299
PELP1	-1.2	55.2	53.8	0.451	-1.93	-5.97
MIGGLFIYNHKGEVLISRVYRDDIGRNAVDAFRVNVIHARQQVRSPVTNIARTSFFHVKRSNIWLAAVTKQNVNAAMVFEFLYKMCDVMAAYFGKISEENIKNNFVLIYELLDEILDFGYPQNSETGALKTFITQQGIKSQHQTKEEQSQITSQVTGQIGWRREGIKYRRNELFLDVLESVNLLMSPQGQVLSAHVSGRVVMKSYLSGMPECKFGMNDKIVIEKQGKGTADETSKSGKQSIAIDDCTFHQCVRLSKFDSERSISFIPPDGEFELMRYRTTKDIILPFRVIPLVREVGRTKLEVKVVIKSNFKPSLLAQKIEVRIPTPLNTSGVQVICMKGKAKYKASENAIVWKIKRMAGMKESQISAEIELLPTNDKKKWARPPISMNFEVPFAPSGLKVRYLKVFEPKLNYSDHDVIKWVRYIGRSGIYETRC [AP2M1]	-0.387	52.3	51.6	0.00223	-2.25	-0.263
MVLLTMIARVADGLPLAASMQEDEQSGRDLQQYQSQAKQLFRKLNEQSPTRCTLEAGAMTFHYIIEQGVCYLVLCEAAFPKKLAFAYLEDLHSEFDEQHGKKVPTVSRPYSFIEFDTFIQKTKKLYIDSRARRNLGSINTELQDVQRIMVANIEEVLQRGEALSALDSKANNLSSLSKKYRQDAKYLNMRSTYAKLAAVAVFFIMLIVYVRFWWL [SEC22B]	-0.0184	51.3	52.2	0.0289	4.24	5.81
